The target in assay [1] is human CD3 (particularly the epsilon subunit of CD3) (human, UniProt P07766 23-207). Put plainly: cell-based or functional assay.
A further assay concerns the target human Her3 (human, UniProt P21860 20-1342). Kind of assay: cell-based or functional assay.

B1: Her2 TCB: anti-Her2/anti-CD3 '2+1 IgG CrossFab, inverted' molecule with charge modifications (bispecific antibody)
light: EVQLLESGGGLVQPGGSLRLSCAASGFTFSTYAMNWVRQAPGKGLEWVSRIRSKYNNYATYYADSVKGRFTISRDDSKNTLYLQMNSLRAEDTAVYYCVRHGNFGNSYVSWFAYWGQGTLVTVSSASVAAPSVFIFPPSDEQLKSGTASVVCLLNNFYPREAKVQWKVDNALQSGNSQESVTEQDSKDSTYSLSSTLTLSKADYEKHKVYACEVTHQGLSSPVTKSFNRGEC
chain 1: not shown
chain 2: not shown
chain 3: not shown
For the molecule B1, the “EC50 of activation of Jurkat-NFAT reporter cells via CD3 after 5 h (luminescence, KPL4 tumor cells)” value in assay [1] was determined as 34.4 pM.

B2: Her3 TCB: anti-Her3/anti-CD3 '2+1 IgG CrossFab' molecule with charge modifications (bispecific antibody)
light: EVQLLESGGGLVQPGGSLRLSCAASGFTFSTYAMNWVRQAPGKGLEWVSRIRSKYNNYATYYADSVKGRFTISRDDSKNTLYLQMNSLRAEDTAVYYCVRHGNFGNSYVSWFAYWGQGTLVTVSSASVAAPSVFIFPPSDEQLKSGTASVVCLLNNFYPREAKVQWKVDNALQSGNSQESVTEQDSKDSTYSLSSTLTLSKADYEKHKVYACEVTHQGLSSPVTKSFNRGEC
chain 1: not shown
chain 2: QVQLVQSGAEVKKPGASVKVSCKASGYTFRSSYISWVRQAPGQGLEWMGWIYAGTGSPSYNQKLQGRVTMTTDTSTSTAYMELRSLRSDDTAVYYCARHRDYYSNSLTYWGQGTLVTVSSASTKGPSVFPLAPSSKSTSGGTAALGCLVEDYFPEPVTVSWNSGALTSGVHTFPAVLQSSGLYSLSSVVTVPSSSLGTQTYICNVNHKPSNTKVDEKVEPKSCDKTHTCPPCPAPEAAGGPSVFLFPPKPKDTLMISRTPEVTCVVVDVSHEDPEVKFNWYVDGVEVHNAKTKPREEQYNSTYRVVSVLTVLHQDWLNGKEYKCKVSNKALGAPIEKTISKAKGQPREPQVCTLPPSRDELTKNQVSLSCAVKGFYPSDIAVEWESNGQPENNYKTTPPVLDSDGSFFLVSKLTVDKSRWQQGNVFSCSVMHEALHNHYTQKSLSLSP
chain 3: not shown
For the molecule B2, the “EC50 of activation of Jurkat-NFAT reporter cells via CD3 after 5 h (luminescence, KPL4 tumor cells)” value in assay [1] amounted to 22 pM. In the assay with human Her3, the “EC50 of tumor cell lysis (LDH release), KPL4 cells, 24 h” value stood at 2.54 pM; the “EC50 of tumor cell lysis (LDH release), KPL4 cells, 48 h” value came to 0.53 pM; the “EC50 of tumor cell lysis determined by Caspase 3/7 activity (luminescence), KPL-4-Caspase-3/7 GloSensor cells, 6.5 h” value turned out to be 0.7 pM.

Values taken from US20200231673A1 (Hoffmann-La Roche, published 2020).
